From US20100098682A1 (published 2010)

Tests used:
[1] = target: T1, Amyloid precursor protein (APP), full length (human, UniProt P05067-4 18-695); assay: anti-myc immunoprecipitation from γ30 cell lysates, western blot
T1 construct: whole, on cells; Used for transfected APP (HeLa), stably expressed APP (HEK293APP, γ30 cells) and endogenous APP of human brain homogenates; also called full length APP; mature, glycosylated APP
Method: (§1) FIG. 4 is photographs of western blots establishing that the first 102 amino acids of BRI2 are necessary to inhibit the efficient cleavage of C99 and that the same region is necessary for the binding of BRI2 to C99 of APP. […] HC indicates the heavy chain of myc antibody used in the immunoprecipitation.
(§2) Immunoprecipitation and western blot. Unless otherwise noted, all immunoprecipitation procedures were performed at 4° C. The transfected cells were lysed in Buffer A [20 mM Hepes/NaOH pH 7.4, 1 mM EDTA, 1 mM DTT, 150 mM NaCl, 0.5% (w/v) TritonX-100] containing 10% (v/v) Glycerol for 30 min, and the lysates were cleared at 20,000 g for 10 min. For FLAG immunoprecipitation, the cleared lysates were mixed with 20 μl of FLAG-M2 beads (Sigma) for 2 hours, and washed three times with Buffer A. The precipitates were boiled in 60 μl of 2×SDS sample buffer and subjected to western blot. For other immunoprecipitation, the cleared lysates were incubated with antibodies for one hour, and mixed with 20 μl of protein A/G beads (Pierce), washed and processed as above. Human brains (a generous gift of Dr. Peter Davies) were homogenized in Buffer A containing 10% (v/v) Glycerol using a Dounce homogenizer. The proteins were extracted overnight with the protein concentration at 5 mg/ml. Extracted proteins were cleared at 20,000 g for one hour. The supernatants were incubated with the indicated antibodies and protein A/G beads blocked with PBS containing 1% (w/v) BSA. Precipitants were washed and processed as described above.

[2] = target: T2, C99, COOH-terminal fragment of 99 amino acids of APP (human, UniProt P05067 672-770); assay: as above
T2 construct: domain: COOH-terminal fragment of 99 amino acids (C99); Produced in cells from APP by processing; also endogenous C99 of human brain
Method: as §1, §2

binding result [1] | binding result [2] | Binder
no binding | no binding | myc-tagged BRI2 C-terminal deletion, first 80 amino acids (other, Expressed in γ30 cells; also called BRI2 1-80; not shown: myc tag) MVKVTFNSALAQKEAKKDEPKSGEEALIIPPDAVAVDCKDPDDVVPVGQRRAWCWCMCFGLAFMLAGVILGGAYLYKYFA
no binding | no binding | myc-tagged BRI2 C-terminal deletion, first 93 amino acids (other, Expressed in γ30 cells; also called BRI2 1-93; not shown: myc tag) MVKVTFNSALAQKEAKKDEPKSGEEALIIPPDAVAVDCKDPDDVVPVGQRRAWCWCMCFGLAFMLAGVILGGAYLYKYFALQPDDVYYCGIKY
